Key:
SP1 = SP1 (UniProt P08047); test: co-immunoprecipitation, western blot; settings: reference: wild type; sites T361,T366,S381,S387
SP3 = SP3 (UniProt Q02447); test: co-immunoprecipitation, western blot; settings: reference: wild type; sites T361,T366,S381,S387

**Q.** For “ELK4 (from UniProt P28324) 4MA (T361/T366/S381/S387A)”, which “binding against the reference” value (SP1) is on record?
**A.** The value was “weaker”.

**Q.** What about the “binding against the reference” value (SP3) of the same substance?
**A.** The value was “weaker”.
